Tests used:
human CD99 = biological target: T1, human CD99 (human, UniProt P14209 23-185); assay: flow cytometry on DIPG cells: pre-incubation with 10D1-CD99 antibody, then detection of CD99 with the commercial 0662 CD99 antibody (the competitor)
T1 construct: whole, on cells; Endogenous CD99 on patient-derived DIPG cells (flow cytometry) and DIPG tumor tissue sections (IHC); also called MIC2/CD99; cell surface CD99 protein
T1 sequence (looked up): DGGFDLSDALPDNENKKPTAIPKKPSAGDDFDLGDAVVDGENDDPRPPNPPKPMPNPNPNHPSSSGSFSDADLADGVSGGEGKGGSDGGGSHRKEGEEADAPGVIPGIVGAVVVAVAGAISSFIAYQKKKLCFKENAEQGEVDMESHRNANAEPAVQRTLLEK
Protocol: The engagement/binding of the presently disclosed 10D1-CD99 antibody to the human CD99 epitope was tested.

[1] = biological target: T2, CD99 epitope peptide antigen (15 amino acid sequence, SEQ ID NO: 1) (human); assay: BLI, OctetRED 384, SA biosensor
T2 construct: It was used with an SA (streptavidin) biosensor
T2 peptide: DGENDDPRPPNPPKC
Protocol: The affinity of one embodiment of the disclosed anti-CD99 antibody was tested against the CD99 epitope. Specifically, the epitope was a peptide antigen and the anti-CD99 antibody was the embodiment of 10D1-1 human IgG4/light chain1. As shown in FIG. 20. affinity was analyzed using an SA biosensor, and association and dissociation constants were monitored using OctetRED 384. […] 400 pM, 350 pM, 300 pM, 250 pM, 200 pM, 150 pM, 100 pM, 90 pM, 80 pM, 70 pM. 60 pM, 50 pM, 40 pM, 30 pM, 20 pM, or 10 pM, and less than about 1 pM, 10 pM, 50 pM, 100 pM, 200 pM, 300 pM, 400 pM, 500 pM, 600 pM. 700 pM, 800 pM, or900 pM.

binding result (human CD99): binds | Kd [1]: 0.436 nM | koff [1]: 0.000744 s⁻¹ | kon [1]: ~1.71e+06 M⁻¹ s⁻¹
B1: 10D1-CD99 antibody (antibody, V domains shown)
VH: EVQLQQSGPELVKPGASVKISCKASGYSFTGYYMHWVKQSHVKSLEWIGRINPYTGATTYNQIFKDKATLTLDKSSSTAYMELHSLTSEDSAIFYCARYYYGNNYNVYLDYWGQGTTLTVSS
VL: DIQLTQTTSSLSASLGDRVTISCSASQGISNYLSWYQQKPDGTFKLLIYYTSTLHSGVPSRFSGSGSGTDYSLTISNLEPEDIATYYCQQYSNLPWTFGGGTRLEIK
notes: also called rh10D1 anti-CD99 antibody; rh10D1-CD99

From patent US20250340666A1 (REGENTS OF THE UNIVERSITY OF COLORADO A BODY CORPORATE, published 2025)
